Measured values published in PMC9765176, “Infant Antibody Repertoires during the First Two Years of Influenza Vaccination” (mBio, 2022).

What was measured:
[1] = target: T1, recombinant hemagglutinin B/Brisbane/2008, full-length construct (full-length soluble ectodomain, FLsE) (influenza B virus B/Brisbane/60/2008, UniProt C0LT35, strain); assay: multiplex bead assay (Luminex); details: one partner purified
T1 construct: also called B/Brisbane/60/2008; B/Vic

[2] = target: T2, recombinant hemagglutinin B/Brisbane/2008, head construct (trimeric, head-only) (influenza B virus B/Brisbane/60/2008, UniProt C0LT35, strain); assay: multiplex bead assay (Luminex); details: one partner purified
T2 construct: also called rHA head

B1: year 2 postvaccination Bmem BCR of infant 1, clonally related to the most abundant IBV HA-specific plasma IgG clonotype (antibody, V domains shown)
VH: EVQLVESGGGLVQPGGSLRLSCAASGFTFRSYEMNWVRQAPGKGLEWISYISGSGGTIYYADSVKGRFTISRDNARNSLYLQMNSLRAEDTAVYYCARDLRGIGDYWGQGTLVTVSS
VL: SSELTQDPAVSVALGQTVRITCQGDSLRSYYASWYQQKPGQAPVLVIYGESNRPSGIPDRFSGSSSGNTASLTITGAQAEDEADYYCNSRDNSGNLYVFGSGTKVTVL
B1: binds [1]; no binding [2].
